Experimental data from patent US20230029453A1 (Janssen / Centocor, published 2023).

The binders below were run against T1, HLA-A*01:01 (human, biotinylated heavy chain) (assay: UV peptide exchange; HLA class I ELISA).
T1 construct: Conditional HLA class I complex (heavy chain + B2M) first held by a UV-labile peptide; the tested peptide is exchanged in after UV cleavage
Experimental: (§1) The UV control represented UV-irradiation of conditional HLA class I complex in the absence of a rescue peptide.
(§2) The HLA class I ELISA is an enzyme immunoassay based on the detection of beta2-microglobulin (B2M) of (peptide-stabilized) HLA class I complexes. To this end streptavidin was bound onto polystyrene microtiter wells. […] Subsequently, horseradish peroxidase (HRP)-conjugated antibody to human B2M was added. […] In the latter case B2M was removed during the washing step. After removal of non-bound HRP conjugate by washing, a substrate solution was added to the wells. A coloured product formed in proportion to the amount of intact HLA complex present in the samples. After the reaction was terminated by the addition of a stop solution, absorbance was measured in a microtiter plate reader.

Row | Binder | Average % [%] | Exch I (%) | Exch II (%)
1 | SLIAMDSAI [Peptide 3, 9-mer SLIAMDSAI derived from FUS1 (SEQ ID NO: 1001)] | 6.9 | 6.9 | 6.9
2 | YHREKQLIA [Peptide 6, 9-mer YHREKQLIA derived from P22 (SEQ ID NO: 1003)] | 5.8 | 6.2 | 5.5
3 | IAMDSAITL [Peptide 2, 9-mer IAMDSAITL derived from FUS1 (SEQ ID NO: 1001)] | 6.9 | 6.7 | 7
4 | AMDSAITLW [Peptide 1, 9-mer AMDSAITLW derived from FUS1 (SEQ ID NO: 1001)] | 4.6 | 4.7 | 4.6
5 | SLYHREKQL [Peptide 4, 9-mer SLYHREKQL derived from P22 (SEQ ID NO: 1003)] | 6.6 | 6.7 | 6.4
6 | KQLIAMDSA [Peptide 9, 9-mer KQLIAMDSA derived from P22 (SEQ ID NO: 1003)] | 6.3 | 6.3 | 6.3
7 | LIAMDSAIT [Peptide 10, 9-mer LIAMDSAIT derived from P22 (SEQ ID NO: 1003)] | 5.8 | 6.2 | 5.4
8 | HREKQLIAM [Peptide 7, 9-mer HREKQLIAM derived from P22 (SEQ ID NO: 1003)] | 5.4 | 5.5 | 5.2

The binders below were run against T2, HLA-B*27:05 (human, biotinylated heavy chain) (assay: UV peptide exchange; HLA class I ELISA).
T2 construct: Conditional HLA class I complex as for m1
Experimental: as §2

Row | Binder | Average % [%] | Exch I (%) | Exch II (%)
9 | SLIAMDSAI [Peptide 3, 9-mer SLIAMDSAI derived from FUS1 (SEQ ID NO: 1001)] | 6.3 | 7.1 | 5.5
10 | YHREKQLIA [Peptide 6, 9-mer YHREKQLIA derived from P22 (SEQ ID NO: 1003)] | 13.1 | 14.4 | 11.7
11 | IAMDSAITL [Peptide 2, 9-mer IAMDSAITL derived from FUS1 (SEQ ID NO: 1001)] | 9.3 | 10.1 | 8.5
12 | AMDSAITLW [Peptide 1, 9-mer AMDSAITLW derived from FUS1 (SEQ ID NO: 1001)] | 9.8 | 10.3 | 9.3
13 | SLYHREKQL [Peptide 4, 9-mer SLYHREKQL derived from P22 (SEQ ID NO: 1003)] | 16.5 | 19 | 14
14 | KQLIAMDSA [Peptide 9, 9-mer KQLIAMDSA derived from P22 (SEQ ID NO: 1003)] | 10.8 | 11.8 | 9.8
15 | LIAMDSAIT [Peptide 10, 9-mer LIAMDSAIT derived from P22 (SEQ ID NO: 1003)] | 7.3 | 8.5 | 6.1
16 | HREKQLIAM [Peptide 7, 9-mer HREKQLIAM derived from P22 (SEQ ID NO: 1003)] | 30.9 | 32.3 | 29.5

Each binder was assayed against T3, HLA-B*07:02 (human, biotinylated heavy chain) (assay: UV peptide exchange; HLA class I ELISA;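 note: ELISA detecting beta2-microglobulin of intact HLA class I complexes captured on streptavidin wells after UV-induced exchange, absorbance read-out, reference is UV-irradiated conditional complex lacking rescue peptide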).
T3 construct: Conditional HLA class I complex as for m1
Experimental: as §1, §2

Row | Binder | Average % [%] | Exch I (%) | Exch II (%)
17 | SLIAMDSAI [Peptide 3, 9-mer SLIAMDSAI derived from FUS1 (SEQ ID NO: 1001)] | 11.1 | 10.9 | 11.3
18 | YHREKQLIA [Peptide 6, 9-mer YHREKQLIA derived from P22 (SEQ ID NO: 1003)] | 10.8 | 11.1 | 10.5
19 | IAMDSAITL [Peptide 2, 9-mer IAMDSAITL derived from FUS1 (SEQ ID NO: 1001)] | 67.1 | 68.7 | 65.4
20 | AMDSAITLW [Peptide 1, 9-mer AMDSAITLW derived from FUS1 (SEQ ID NO: 1001)] | 9.7 | 10 | 9.4
21 | SLYHREKQL [Peptide 4, 9-mer SLYHREKQL derived from P22 (SEQ ID NO: 1003)] | 10.8 | 10.9 | 10.8
22 | KQLIAMDSA [Peptide 9, 9-mer KQLIAMDSA derived from P22 (SEQ ID NO: 1003)] | 10.3 | 10.5 | 10.1
23 | LIAMDSAIT [Peptide 10, 9-mer LIAMDSAIT derived from P22 (SEQ ID NO: 1003)] | 9.5 | 9.8 | 9.2
24 | HREKQLIAM [Peptide 7, 9-mer HREKQLIAM derived from P22 (SEQ ID NO: 1003)] | 12.6 | 12.6 | 12.6

What follows are binders tested against T4, HLA-A*02:01 (human, biotinylated heavy chain) (assay: UV peptide exchange; HLA class I ELISA;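 note: conditional HLA class I complexes UV-irradiated with peptide, captured on streptavidin wells, intact complex read as HRP anti-B2M absorbance, higher means more binding, control irradiated without rescue peptide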).
T4 construct: Conditional HLA class I complex as for m1
Experimental: as §1, §2

Row | Binder | Average % [%] | Exch I (%) | Exch II (%)
25 | SLIAMDSAI [Peptide 3, 9-mer SLIAMDSAI derived from FUS1 (SEQ ID NO: 1001)] | 58.5 | 57.3 | 59.7
26 | YHREKQLIA [Peptide 6, 9-mer YHREKQLIA derived from P22 (SEQ ID NO: 1003)] | 17.2 | 16.3 | 18.1
27 | IAMDSAITL [Peptide 2, 9-mer IAMDSAITL derived from FUS1 (SEQ ID NO: 1001)] | 85.8 | 81.1 | 90.5
28 | AMDSAITLW [Peptide 1, 9-mer AMDSAITLW derived from FUS1 (SEQ ID NO: 1001)] | 8.6 | 8 | 9.2
29 | SLYHREKQL [Peptide 4, 9-mer SLYHREKQL derived from P22 (SEQ ID NO: 1003)] | 87 | 82.8 | 91.2
30 | KQLIAMDSA [Peptide 9, 9-mer KQLIAMDSA derived from P22 (SEQ ID NO: 1003)] | 7.2 | 6.9 | 7.6
31 | LIAMDSAIT [Peptide 10, 9-mer LIAMDSAIT derived from P22 (SEQ ID NO: 1003)] | 6.9 | 6.7 | 7.1
32 | HREKQLIAM [Peptide 7, 9-mer HREKQLIAM derived from P22 (SEQ ID NO: 1003)] | 8.2 | 7.9 | 8.6

These binders were tested against T5, HLA-A*24:02 (human, biotinylated heavy chain) (assay: UV peptide exchange; HLA class I ELISA).
T5 construct: Conditional HLA class I complex as for m1
Experimental: as §1, §2

Row | Binder | Average % [%] | Exch I (%) | Exch II (%)
33 | SLIAMDSAI [Peptide 3, 9-mer SLIAMDSAI derived from FUS1 (SEQ ID NO: 1001)] | 5.5 | 5.3 | 5.7
34 | YHREKQLIA [Peptide 6, 9-mer YHREKQLIA derived from P22 (SEQ ID NO: 1003)] | 6.5 | 6.6 | 6.3
35 | IAMDSAITL [Peptide 2, 9-mer IAMDSAITL derived from FUS1 (SEQ ID NO: 1001)] | 7 | 6.7 | 7.3
36 | AMDSAITLW [Peptide 1, 9-mer AMDSAITLW derived from FUS1 (SEQ ID NO: 1001)] | 5.5 | 5.1 | 6
37 | SLYHREKQL [Peptide 4, 9-mer SLYHREKQL derived from P22 (SEQ ID NO: 1003)] | 6.6 | 6.5 | 6.6
38 | KQLIAMDSA [Peptide 9, 9-mer KQLIAMDSA derived from P22 (SEQ ID NO: 1003)] | 5 | 4.6 | 5.3
39 | LIAMDSAIT [Peptide 10, 9-mer LIAMDSAIT derived from P22 (SEQ ID NO: 1003)] | 4.8 | 4.6 | 5.1
40 | HREKQLIAM [Peptide 7, 9-mer HREKQLIAM derived from P22 (SEQ ID NO: 1003)] | 5.5 | 5.4 | 5.6

The binders below were run against T6, HLA-B*08:01 (human, biotinylated heavy chain) (assay: UV peptide exchange; HLA class I ELISA).
T6 construct: Conditional HLA class I complex as for m1
Experimental: as §1, §2

Row | Binder | Average % [%] | Exch I (%) | Exch II (%)
41 | SLIAMDSAI [Peptide 3, 9-mer SLIAMDSAI derived from FUS1 (SEQ ID NO: 1001)] | 7.3 | 7.5 | 7.1
42 | YHREKQLIA [Peptide 6, 9-mer YHREKQLIA derived from P22 (SEQ ID NO: 1003)] | 8.3 | 8.3 | 8.4
43 | IAMDSAITL [Peptide 2, 9-mer IAMDSAITL derived from FUS1 (SEQ ID NO: 1001)] | 7.9 | 7.6 | 8.1
44 | AMDSAITLW [Peptide 1, 9-mer AMDSAITLW derived from FUS1 (SEQ ID NO: 1001)] | 7 | 6.6 | 7.3
45 | SLYHREKQL [Peptide 4, 9-mer SLYHREKQL derived from P22 (SEQ ID NO: 1003)] | 20.7 | 20.3 | 21.1
46 | KQLIAMDSA [Peptide 9, 9-mer KQLIAMDSA derived from P22 (SEQ ID NO: 1003)] | 7.7 | 7.1 | 8.3
47 | LIAMDSAIT [Peptide 10, 9-mer LIAMDSAIT derived from P22 (SEQ ID NO: 1003)] | 7.3 | 6.9 | 7.7
48 | HREKQLIAM [Peptide 7, 9-mer HREKQLIAM derived from P22 (SEQ ID NO: 1003)] | 9.5 | 9.5 | 9.5
